Measured values as given in patent publication US7605133 (PANACEA PHARMACEUTICALS, dated 2009).
Ends that are not written are not given here.

Assays:
[1] = molecular target: T1, NAC portion of α-synuclein (approx. amino acids 61-87) (human, UniProt P37840 61-87); experiment: phage display selection
T1 construct: range 61-87; also called α-synuclein 61-87 peptide

[2] = molecular target: α-synuclein (recombinant, wildtype) (human, UniProt P37840 1-140); experiment: cell-based or functional assay
[3] = molecular target: T1, NAC portion of α-synuclein (approx. …); experiment: phage display selection with the α-synuclein 121-131 and 61-87 peptides as the bait

## WPFHHHR (7-mer from phage display)
[1]
  binding result: binds

## THIHHPS (7-mer from phage display)
[1]
  binding result: binds

## RLRGRNQ (7-mer from phage display)
[1]
  binding result: binds

## HLYHHKT (7-mer from phage display)
[1]
  binding result: binds

## SLKRLPK (also called the peptide)
[1]
  binding result: binds
[2]
  inhibition of iron-induced α-synuclein aggregation in vitro, densitometric quantification, 10-fold excess of the peptide: 38%

B1: phage containing the SLKRLPK (SEQ ID NO: 7) peptide (peptide)
chain: SLKRLPK
modifications: also: displayed on phage coat protein
notes: also called SLKRLPK phage; not shown: phage coat protein that carries the 7-mer (New England Biolabs phage display kit); neither the protein nor any linker is
[3]
  binding result: binds
